Measured values taken from PMC3552686, “Biosynthesis of allene oxides in Physcomitrella patens” (BMC Plant Biology, 2012).

What was measured:
Assay in all cases: purified protein
Type in all cases: biochemical, Physcomitrium patens
purified protein [1] = substrate: CC/C=C\C/C=C\C=C\[C@H](CCCCCCCC(=O)O)OO; conditions: pH 6.5, room temperature, 0.1 nM enzyme, kcat corrected to 100% heme
purified protein [2] = substrate: CCCCC/C=C\C=C\[C@H](C/C=C\CCCCC(=O)O)OO; conditions: pH 6.5, room temperature, 0.05 nM enzyme, kcat corrected to 100% heme
purified protein [3] = substrate: CCCCC[C@@H](/C=C/C=C\CCCCCCCC(=O)O)OO; conditions: pH 6.5, room temperature, 0.1 nM enzyme, kcat corrected to 100% heme
purified protein [4] = substrate: CCCCC/C=C\C=C\[C@H](CCCCCCCC(=O)O)OO; conditions: pH 6.5, room temperature, 0.1 nM enzyme, kcat corrected to 100% heme
purified protein [5] = substrate: CCCCC[C@@H](/C=C/C=C\C/C=C\CCCCC(=O)O)OO; conditions: pH 6.5, room temperature, 0.05 nM enzyme, kcat corrected to 100% heme
purified protein [6] = substrate: CC/C=C\C[C@@H](/C=C/C=C\CCCCCCCC(=O)O)OO; conditions: pH 6.5, room temperature, 0.1 nM enzyme, kcat corrected to 100% heme
purified protein [7] = substrate: CCCCC/C=C\C[C@@H](/C=C/C=C\C/C=C\CCCC(=O)O)OO; conditions: pH 6.5, room temperature, 0.1 nM enzyme, kcat corrected to 100% heme

B1: PpAOS1 (Physcomitrium patens) (protein)
chain: MAVPSSKLPLKAIPGDYGVPYFGAIKDRLDYFWLQGEEQFYRSRMAKYNSTVFRVNMPPGPPISEHPQVICLLDQKSFPILFDVSKVEKKDVFTGTYMPSVSFTSGYRVCSYLDPSEERHTKLKQWCFEVIAMNGRNFLPEFHKSIEESMVLWETSLAKGEKTSVSDEVKQFAFNFLMRAVCHHDPAAPGEYSLGRNGGPYATAWANPQLAPIAGQTGLPHVVEELVLHTVPLPSALVKKNYDALYNFIKNYATEALDRAEAMGIERNDATANLLFFLCFNAYGGFSIFFPLITILISSCGPELMHDLHDEVTKAVAATDGKVTLQSIENMPLVKSVVYEAFRFKPPVPYQYGKAKFDFTIENHENSFEVKKGEMLYGYQPIVMHDPKVFSDPDQFLPRRFMGPDGEKLIKYIFWSNGYETDEPTTANKQCAGKDLVVTMARAFVAEMFLRYKEYTLTMEGAGNATKVFFSDLKK
notes: cDNA from protonema library; N-terminal His6 tag kept (pQE30), E. coli SG13009[pRep4]
B1 gave a Km (purified protein [1]) of 39 ± 14 µM, a Vmax (purified protein [1]) of 0.2 µM/min and a kcat (purified protein [1]) of 112 s⁻¹. It also gave a kcat/Km (purified protein [1]) of 2.87e+06 M⁻¹ s⁻¹, a Km (purified protein [2]) of 46 ± 17 µM and a Vmax (purified protein [2]) of 2.35 µM/min. For the same protein, the kcat (purified protein [2]) was 2610 s⁻¹, the kcat/Km (purified protein [2]) was 5.71e+07 M⁻¹ s⁻¹ and the Km (purified protein [3]) was 83 ± 42 µM. The Vmax (purified protein [3]) was 0.96 µM/min, the kcat (purified protein [3]) was 531 s⁻¹ and the kcat/Km (purified protein [3]) was 6.4e+06 M⁻¹ s⁻¹. For the same protein, the Km (purified protein [4]) was 121 ± 61 µM, the Vmax (purified protein [4]) was 0.98 µM/min and the kcat (purified protein [4]) was 545 s⁻¹. The kcat/Km (purified protein [4]) was 4.5e+06 M⁻¹ s⁻¹, the Km (purified protein [5]) was 107 ± 57 µM and the Vmax (purified protein [5]) was 2.77 µM/min. It also gave a kcat (purified protein [5]) of 3080 s⁻¹, a kcat/Km (purified protein [5]) of 2.88e+07 M⁻¹ s⁻¹ and a Km (purified protein [6]) of 95 ± 27 µM. It also gave a Vmax (purified protein [6]) of 0.9 µM/min, a kcat (purified protein [6]) of 501 s⁻¹ and a kcat/Km (purified protein [6]) of 5.27e+06 M⁻¹ s⁻¹. It also gave a Km (purified protein [7]) of 7 ± 2 µM, a Vmax (purified protein [7]) of 0.23 µM/min and a kcat (purified protein [7]) of 128 s⁻¹. For the same protein, the kcat/Km (purified protein [7]) was 1.96e+07 M⁻¹ s⁻¹.
